# From the supplement of paper PMC9170038
# System: K4 kissing-loop RNA reporter
# Assay: apparent KD of K4 kissing-loop reporter; higher = weaker reporter binding
# Conditions: Eterna round: R107; input ligand: none
# Protocol: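 RNA-MaP round R107: designed RNA switches with theophylline, tryptophan, arginine or FMN aptamers are transcribed on-chip within common flanks. They are titrated with a labelled K4 kissing-loop RNA reporter in RNA-MaP buffer (100 mM Tris pH 7.5, 80 mM KCl, 4 mM MgCl2), without ligand or with the indicated ligand. Median apparent KD per design.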
# 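Also: bound reporter read as fluorescence of individual clusters on recovered sequencing chips by microscopy, with normalized cluster intensities fitted with a binding model.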
row,Sequence,apparent KD of K4 kissing-loop reporter [nM]
1,AAUAAUAAUAAAUAUAGAUUGAUGAGGAAACGAGGACCGGUACGGCCGCCACUCGAGUGAUGUUCGAGAACCUCAUCAAUCAUAA [AK4.7 Exc Tryptophan A],166
2,CUUCUCCUUCCAAUCUCGGCCAACACGGGACGAGGACCGGUACGGCCGCCACUCGUGCAGUGAUGUUGCACGAUGGUGACGGAGA [Queronmaan],94.2
3,CUGAGCUGCAGCGAUACCAGUGUGGAGUGAUGUUCCCUGGUCCGGGCUGUUGUUCCCUUGCGCCCUUGGCAGCGCAGGAGCAGGG [Exclusion Theophylline B GF 15],422
4,AAGGCCACGAGAAGGAGCGUGCUAUGGAGUGAUGUUCCAAUGUAGACCUAAGGUCUACAAGCACAGGUAGGUCGCUCGUGGUCAA [Omei KL Arginine B SS A v2],109
5,CGACUAGUCUUGCAACCCUAGUCGAUAGACUAGGAUAUCAGGAAACUGAGAAGGAGUCUACUUGCAGUGAUGUUGCAAGAAUAAU [[F]''-[K]'-[F]'-[F1]-[F2]-[K1]-[K2]_Design6],170
6,GCAUGUAUGCGAGAGUGAUGUUCAUGGUUUCGAGGACCGGUACGGCCGCCACUCGCGAUCCGGCGUACAAUCGUGAAGUUAUCAU [theeternabot_sameState_KL_Trp_A_42],655
7,GCGCGUCAUGUCAGCGGUGACACUGUCGAUACCAGCGCCGUAAGGCGCCCUUGGCAGCGACGUGCUGGAGUGAUGUUCCAGCGUC [#2 Exclusion - Theophylline A Attempt #20 (HarryS)],149
8,AAUACCUGAGUGAUGUUCAGGGAAUCAGAAGGAGCGUCAAUUAUGACAGGUAGGUCGCUGAAGACAUGUGUGUAUACACAUGUCC [#04 K4 Arginine A Same State],234
9,AAAAUAAUCCAGUGAUGUUGGUAUCCAGAUACCAGCCACGAAAGUGGCCCUUGGCAGCUGUGGACGUACAAAAUAAGUACGUCCU [#OpenEnded 8 #StaticStem #K4Early],729
10,UGAUACCAGACGGCCGCCACUCCUGCAGUCAAAGACUGCUAAAGGAAAUUCGUCCAGUGAUGUUGGAGGACCGGGUCUGGUAUCU [TrypBX 13 #SwitchBubble #Palindromic #StaticStem],1070
11,GGCGGCCGCGCGAAAGCGCGGCCGGCCGAUACCAGCGCGACGGCGCGCCCUUGGCAGCGGCGCCGAGUGAUGUUCGGCCUGCCGU [#2 Same State - Theophylline A Attempt #13 (HarryS)],117
12,GGAUAGGACAGAGGAUAUGGUAGUGAUGUUACCAAACUGGUUAUUAAUGUCAGAAAACUGGCAAAUCCAGAAGGCUGUCCUAUCG [KL-XFMN-B13],75.7
13,UAAGUCUUAUCGGCCGCCACUCAUUACACGAAGUGAUGUUUCGGGUUUUAGACAAAUAAUUUUUGGAGGACCGGGAUACGAGAAA [theeternabot_sameState_KL_Trp_B_49],139
14,AAACAUUGGUCGGAUACCAGUUAGACCGAUAAGGUCAAAACUGGAGUGAUGUUCCCAAAUAACCCUUGGCAGCCGACCGAUGAAA [MAT - Same State Theophlline B - Mod of Eli - D11],167
15,AGACUACCACACUGUCAAUAGACAGUGAACUAGGAUAUGCUGAUAAGCAGAAGGAGUGAUGUUCCUCGGUAGUCAAUAAAAUAAU [FmnAX 13 C67],303
16,UGUGAUGUGUAGAGUGAUGUUUUGAAGGAUACCAGAGUGUUGUUAUUCCCUUGGCAGCUUGAGUGAUGUUUGAUGUUGUUGUUGU [efvrmullin],194

# Same assay, conditions: Eterna round: R107; input ligand: theophylline 20 uM
row,Sequence,apparent KD of K4 kissing-loop reporter [nM]
1,GCCGUAGAUGGAAGGAGCGACUUCAGCGGAUAAACGUGACAAUUGGAGUGAUGUUCGCAAGGUCAGGUAGGUCGCCAUCUACGGC,274
2,AUUUUGGUUUAGAGUGAUGUUCCUUGUAUUCGAGGACCGGUACGGCCGCCACUCGGGUAGAAAAGAAAAGAAAUGUUUGAUUUUU [BDazzled - #9 SS Tryptophan A],222
3,UACCUAUUAUUAACACUAUAUACAACUGAAGGAGCGACAAUAAAGUCAGGUAGGUCGCAGAAUUAAUGAGUGAUGUUCAUUUUUA [JR_ExcArginiA_Sub014],110
4,AAAAUAAAGGAGUGAUGUUCCAUAUGUGAUACCAGCCACGAAAGUGGCCCUUGGCAGCACUGCCAAGUGGACGAAAACGUCCACA [#OpenEnded 5 #StaticStem #K4Early],160
5,UGUACCGAGUCAGGAUAUCAACGACUGACAAAGUCGGUCGAAUAUCCAGUGAUGUUGGAAAAUAAAUGAGAAGGGACUUGGUACU [FmnBS 12 #SwitchBubble #StaticStem],341
6,UCGAUGGUCAGCGAUACCAGCCCAGUGAUGUUGGGCACAUGGUUGCGGAAAAUCCCAUUGGGCCCUUGGCAGCGCUUGCAUGGGU [Titiquesan],136
7,AGAGAGGUGUUUUUUUGAAGUGAGUAAUGGCGAGGACCGGUACGGCCGCCACUCGGGUGAUGUUAGUGAUGUUGAUGUAGUGAUG [yrymullin],114
8,GGGAGUUAUUACGGCAGGGUCGAUACGGAUACCAGUAGGCGGCUCUACCCUUGGCAGCCGUAACAUGGUAGUGAUGUUAUCAGUC [theeternabot_exclusion_KL_Theo_A_24],468
9,GGCACUUUUGGUAGACACCAUCUACCUCUAUAGGAUAUGCCGAAAGGCAGAAGGAUAGACCUACAGAGUGAUGUUCUGCGUGCCU,946
10,CCUAUCUCAUACGAUACCAGUCAAUGAAAUUUUAUCAAUGCCAUCACCGAGUGAUGUUCGGACCCUUGGCAGCGUAUGGGAUAGG [Ex Theophylline B K4 3],329
11,ACUGAGCAUGCGGCCGCCACUUCAGAACGUCGCCCAGAGGGCGACGCCUCCGCAGUGAUGUUGUGGAGGACCGGGCAUGUUCAGA [Omei KL Tryp B Exc A v5],451
12,UUAUAACCCAGUGAUGUUGGGUAGCGGCCACGAGGACCGGUACGGCCGCCACUCGAGGUUUAACCAGUGAUGUUGGACUAUAUAA [Same state Tryptophan A GF 4],34.5
13,UUGUUUGGUUGAGAGGUUGGGCGAGAUGAUACCAGUAGAGAAGAGUACCCUUGGCAGCAUAGGAGAGAUAUAGUGAUGUUGUAUG [SSTheophA.S],498
14,CCGCUGUACUGCAAUAAGUGAUGUUUAUUGCAGGAUAUCUGGAAACAGAGAAGGGCAUGUACUCGACUUAGCCACUACAGCGGUU,56.9
15,GUAGAUAGGCUACAUCUCUAGUCUAUAGACUAGGAUAUCAGGAAACUGAGAAGGAGUCUCAUUGGAGUGAUGUUCCAAGAAUAAU [KL-SSFMN-A15],133
16,AAUAAUAAUAAAUAUAGAUUGAUGAGGAAACGAGGACCGGUACGGCCGCCACUCGAGUGAUGUUCGAGAACCUCAUCAAUCAUAA [AK4.7 Exc Tryptophan A],154
17,CUUCUCCUUCCAAUCUCGGCCAACACGGGACGAGGACCGGUACGGCCGCCACUCGUGCAGUGAUGUUGCACGAUGGUGACGGAGA [Queronmaan],86.9
18,CUGAGCUGCAGCGAUACCAGUGUGGAGUGAUGUUCCCUGGUCCGGGCUGUUGUUCCCUUGCGCCCUUGGCAGCGCAGGAGCAGGG [Exclusion Theophylline B GF 15],378
19,AAGGCCACGAGAAGGAGCGUGCUAUGGAGUGAUGUUCCAAUGUAGACCUAAGGUCUACAAGCACAGGUAGGUCGCUCGUGGUCAA [Omei KL Arginine B SS A v2],100
20,CGACUAGUCUUGCAACCCUAGUCGAUAGACUAGGAUAUCAGGAAACUGAGAAGGAGUCUACUUGCAGUGAUGUUGCAAGAAUAAU [[F]''-[K]'-[F]'-[F1]-[F2]-[K1]-[K2]_Design6],168
21,GCAUGUAUGCGAGAGUGAUGUUCAUGGUUUCGAGGACCGGUACGGCCGCCACUCGCGAUCCGGCGUACAAUCGUGAAGUUAUCAU [theeternabot_sameState_KL_Trp_A_42],542
22,GCGCGUCAUGUCAGCGGUGACACUGUCGAUACCAGCGCCGUAAGGCGCCCUUGGCAGCGACGUGCUGGAGUGAUGUUCCAGCGUC [#2 Exclusion - Theophylline A Attempt #20 (HarryS)],126
23,AAUACCUGAGUGAUGUUCAGGGAAUCAGAAGGAGCGUCAAUUAUGACAGGUAGGUCGCUGAAGACAUGUGUGUAUACACAUGUCC [#04 K4 Arginine A Same State],275
